± gives the uncertainty stated by the source.
Assay: protein stability index of a GFP-peptide fusion (yeast GPS) (PSI 1-4); higher = more stable; sorted into four equal gates, so the index is relative within each strain
Procedure, shortened: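 For each peptide, the protein stability index sums the read frequency in every gate after multiplying it by the gate number. Read frequencies came from plasmids that were PCR-amplified from each gate and Illumina-sequenced, with reads assigned to strains by barcodes. The gates were four equal bins of GFP/Cherry fluorescence ratio applied to mid-log yeast in leucine-free medium carrying a pooled library of tiled 17-residue yeast protein peptides fused downstream of GFP on a Cherry-expressing plasmid.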

Row | Sequence | protein stability index (doa10∆) | protein stability index (pdr5∆) | protein stability index (san1∆) | protein stability index (ubr1∆)
1 | LDLMFDEVYVQNSKFLK [YJL039C/NUP192] | 2.94 ± 0.066 | 2.94 ± 0.055 | 2.87 ± 0.071 | 2.87 ± 0.034
2 | LDNLKLKELRIDNSPQA [GRR1] | 2.65 ± 0.054 | 2.72 ± 0.07 | 2.69 ± 0.07 | 2.94 ± 0.042
3 | LDPLEVHMLDFPNIAIR [PRP8] | 2.74 ± 0.059 | 2.79 ± 0.056 | 2.84 ± 0.051 | 2.88 ± 0.043
4 | LDPSLRAPIYHSKFRSS [YML031W/NDC1] | 2.02 ± 0.093 | 2.34 ± 0.064 | 1.71 ± 0.25 | 2.35 ± 0.072
5 | LDQLLVLEKKTRQASDL [RPN5] | 3.19 ± 0.12 | 2.95 ± 0.1 | 3.1 ± 0.07 | 2.71 ± 0.097
6 | LDQVGVPKSIAKTLTYP [RPO21] | 2.74 ± 0.064 | 2.83 ± 0.051 | 2.65 ± 0.043 | 2.99 ± 0.06
7 | LDRELLKPSMSVALHRH [RPT3] | 2.98 ± 0.082 | 2.71 ± 0.1 | 3.07 ± 0.071 | 2.7 ± 0.16
8 | LDRIPMHSYFIFKDLVT [COB] | 1.92 ± 0.11 | 1.91 ± 0.12 | 1.88 ± 0.12 | 1.67 ± 0.069
9 | LDTRKELWRKEQKLQTV [SMC3] | 1.79 ± 0.069 | 2.58 ± 0.081 | 2.83 ± 0.16 | 2.99 ± 0.058
10 | LEEDSKKVNGTSYKKWS [PRP8] | 3.3 ± 0.14 | 3.41 ± 0.15 | 3.24 ± 0.075 | 3.03 ± 0.092
11 | LEFSALSAADIVAQSEV [RPO31] | 3.01 ± 0.093 | 3.13 ± 0.075 | 3.1 ± 0.071 | 3.17 ± 0.059
12 | LEGEELAFYLRRLTAKK [RPS8A] | 1.9 ± 0.068 | 1.75 ± 0.068 | 1.93 ± 0.1 | 3.05 ± 0.099
13 | LEGNDIHALAAKLLQEN [FAS1] | 2.76 ± 0.063 | 2.95 ± 0.065 | 2.77 ± 0.051 | 2.7 ± 0.059
14 | LEGSVSLPRFSKPVLIV [DIS3] | 2.67 ± 0.072 | 2.57 ± 0.063 | 2.19 ± 0.06 | 3.02 ± 0.062
15 | LEHLHSTAFQNTPLSLP [COR1] | 2.52 ± 0.039 | 2.66 ± 0.033 | 2.35 ± 0.035 | 2.65 ± 0.039
16 | LEIDNKDSVTECSKDMK [SIR4] | 3.46 ± 0.14 | 3.53 ± 0.083 | 3.4 ± 0.12 | 3.63 ± 0.066
17 | LEKCEAEFKKRKIEAET [YCS4] | 2.79 ± 0.14 | 3.17 ± 0.084 | 3.3 ± 0.21 | 2.98 ± 0.14
18 | LEKGEIELSDGSTFKVN [YJL039C/NUP192] | 3.02 ± 0.079 | 3.1 ± 0.067 | 2.83 ± 0.073 | 2.95 ± 0.052
19 | LEKLVDHHPEGLSAREA [PRE10] | 2.92 ± 0.068 | 2.9 ± 0.059 | 2.65 ± 0.067 | 2.62 ± 0.058
20 | LELAGMDALYEKIWFAI [SIR3] | 1.41 ± 0.095 | 1.53 ± 0.068 | 1.21 ± 0.11 | 1.15 ± 0.052
21 | LELQVAKTFIDLESSSP [RPS7B] | 3.17 ± 0.071 | 3.2 ± 0.063 | 2.96 ± 0.11 | 3.11 ± 0.064
22 | LELRNSVMDDILEMMPE [PRP8] | 3.53 ± 0.12 | 3.26 ± 0.12 | 3.15 ± 0.09 | 3.37 ± 0.068

Row | Sequence | protein stability index (doa10∆) | protein stability index (pdr5∆) | protein stability index (san1∆) | protein stability index (ubr1∆)
23 | LEQDLHFENAKVIDLDT [YIL149C/MLP2] | 3.08 ± 0.18 | 3.32 ± 0.16 | 2.65 ± 0.23 | 3.13 ± 0.11
24 | LEQREQNENLPSDKSDS [SSN2] | 3.16 ± 0.07 | 3.09 ± 0.071 | 3.04 ± 0.057 | 3.12 ± 0.056
25 | LERIVQIMQNPTHYKIP [RPS18A] | 2.61 ± 0.1 | 3.1 ± 0.11 | 2.9 ± 0.065 | 2.74 ± 0.12
26 | LESADKQLEKRDYQRIN [POP4] | 2.71 ± 0.052 | 2.72 ± 0.055 | 2.64 ± 0.065 | 3.18 ± 0.059
27 | LESKMSEVGDAFIFGLQ [SMC3] | 3.29 ± 0.061 | 3.28 ± 0.06 | 3.31 ± 0.041 | 3.34 ± 0.052
28 | LEVFHHFFKWIEFIVYH [SRB8] | 1.13 ± 0.054 | 1.11 ± 0.047 | 1.08 ± 0.17 | 1.06 ± 0.041
29 | LEWLENPSNTPDKDYLL [FAS1] | 3.16 ± 0.11 | 3.21 ± 0.088 | 3.27 ± 0.071 | 3.29 ± 0.11
30 | LFGGRHYLFNTFTFTAH [SWP82] | 2.03 ± 0.042 | 2.1 ± 0.035 | 1.69 ± 0.061 | 1.82 ± 0.024
31 | LFIGLFTRPLFVLLEIE [YCS4] | 1.82 ± 0.092 | 1.98 ± 0.083 | 2.11 ± 0.15 | 1.61 ± 0.093
32 | LFKNYRFNFISKYFIID [YMR129W/POM152] | 1.97 ± 0.068 | 1.41 ± 0.074 | 1.32 ± 0.1 | 1.42 ± 0.061
33 | LFLYKELVKAHLGERAA [RPC82] | 2.72 ± 0.086 | 2.96 ± 0.09 | 2.88 ± 0.061 | 2.77 ± 0.11
34 | LFQVESAPKISSEIDRE [SIR4] | 2.35 ± 0.05 | 2.61 ± 0.062 | 2.37 ± 0.053 | 2.42 ± 0.045
35 | LFQVEYSLEAIKLGSTA [PUP2] | 1.61 ± 0.075 | 2.32 ± 0.069 | 2.08 ± 0.12 | 2.2 ± 0.053
36 | LFSLEKPNLNYFKSILL [SWI1] | 1.38 ± 0.056 | 1.59 ± 0.055 | 1.62 ± 0.082 | 1.86 ± 0.051
37 | LFVCNKDPDVPLVLLQQ [POP3] | 2.57 ± 0.082 | 2.32 ± 0.077 | 2.26 ± 0.11 | 2.27 ± 0.058
38 | LGEFSITYTPVRHGRAG [RPS15] | 1.85 ± 0.15 | 1.85 ± 0.12 | 1.61 ± 0.15 | 
39 | LGGDSDEANIEIDPLTG [BRN1] | 3.05 ± 0.18 | 3.48 ± 0.27 | 2.92 ± 0.18 | 
40 | LGIKKEKRIQYAKDILQ [RPB2] | 2.01 ± 0.059 | 2.12 ± 0.061 | 1.64 ± 0.094 | 1.99 ± 0.041
41 | LGKGGAKRHRKILRDNI [HHF1] | 3.36 ± 0.26 | 3.21 ± 0.17 | 3.4 ± 0.19 | 2.99 ± 0.14
42 | LGMGKAVEKTLALGCHF [POP7] | 1.98 ± 0.097 | 2.16 ± 0.08 | 2.6 ± 0.1 | 2.38 ± 0.088
43 | LGNEKNQASTSKRVYKI [CDC53] |  | 2.83 ± 0.12 | 2.92 ± 0.096 | 
44 | LGRLNKLRKIAISKKNK [LIN1] | 2 ± 0.083 | 1.74 ± 0.096 | 1.39 ± 0.23 | 1.47 ± 0.072

From the supplement of paper PMC9732359
